Data on one molecule can be found in paper PMC12106912 (International Journal of Nanomedicine, 2025).

The target in the assay is Glypican-3 (GPC3), surface antigen of HepG2 cells (Homo sapiens (endogenous, HepG2), UniProt P51654). The assay can be described thus: co-IP.
Sequence of Glypican-3 (GPC3), surface antigen of HepG2 cells (P51654 25-580): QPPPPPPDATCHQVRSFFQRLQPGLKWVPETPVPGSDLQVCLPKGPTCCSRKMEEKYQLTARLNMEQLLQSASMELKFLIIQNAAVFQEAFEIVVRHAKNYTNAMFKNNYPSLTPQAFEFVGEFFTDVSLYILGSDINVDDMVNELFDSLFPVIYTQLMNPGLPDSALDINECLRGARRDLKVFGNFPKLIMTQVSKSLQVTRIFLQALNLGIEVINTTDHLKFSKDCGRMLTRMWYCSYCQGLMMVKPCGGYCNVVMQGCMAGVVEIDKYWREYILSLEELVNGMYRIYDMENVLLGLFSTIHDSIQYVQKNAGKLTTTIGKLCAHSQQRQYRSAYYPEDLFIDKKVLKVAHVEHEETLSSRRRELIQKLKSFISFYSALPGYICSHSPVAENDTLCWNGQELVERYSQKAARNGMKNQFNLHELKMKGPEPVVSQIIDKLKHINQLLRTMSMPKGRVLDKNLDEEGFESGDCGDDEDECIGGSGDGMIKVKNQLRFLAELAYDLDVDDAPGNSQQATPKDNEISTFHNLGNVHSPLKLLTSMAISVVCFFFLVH

B1: Hbp-hGC33-scFv/Myc fusion protein displayed on the membrane surface of E. coli outer membrane vesicles (hGC33-OMVs) (scFv, V domains shown)
VH: QVQLVQSGAEVKKPGASVKVSCKASGYTFTDYEMHWVRQAPGQGLEWMGALDPKTGDTAYSQKFKGRVTLTADKSTSTAYMELSSLTSEDTAVYYCTRFYSYTYWGQGTLVTVSS
VL: DVVMTQSPLSLPVTPGEPASISCRSSQSLVHSNGNTYLHWYLQKPGQSPQLLIYKVSNRFSGVPDRFSGSGSGTDFTLKISRVEAEDVGVYYCSQNTHVPPTFGQGTKLEIK
In the case of B1, the binding result is given as “binds”.
